Laboratory results as given in paper PMC3564912, “Single Particle Electron Microscopy Analysis of the Bovine Anion Exchanger 1 Reveals a Flexible Linker Connecting the Cytoplasmic and Membrane Domains” (PLoS ONE, 2013).

Biological target: the molecule itself
Test: SEC; Superose 6 10/300, 50 mM Tris-HCl pH 7.5, 0.03% DDM, 0.15 M NaCl; sample after ion exchange and the dimer fraction run again

B1: bovine anion exchanger 1 (AE1) (natural protein, UniProt Q9XSW5 1-930, looked up)
chain: MGDPEEYEDQLEETLEQKEYEDHDSVSIPMEEAEGDTIQEEEAEARVNQLTDTDYHTTSQHPETHKVCVQLRELVMDEKNQEIQWMETARWVGLEENLGKDGIWGRPHLPYLNFWSLLELQKAFAKGTVLLDLPGKSLAEVANQLLDRFTFEGQIQPDDQDNLLRVLLLKHSHASDMEALGGVKPVVVTHSGDPSEPLLPQHPSLETELFCEQGEGSTRGHAPEILGKSPQDWEATLVLVGCARFLKRPVLGFVRLKEPMEPEPKPEGSEEPAVPVRFLIVLLGPEGPNINYTQLGRAAATLMSERVFWNDAYLAQSKETLVQSLEGFLDCSLVLPPLDAPSEKALLSLVPVQKELLRRRYLPSPAKPDPSIFKDLDVKKGPGDTPEDPLQRTGKLFGGLVRDIRRRYPRYLSDITDALSPQVLSAIIFIYFAALTPAITFGGLLGDKTENMIGVSELLLSTALQGIIFSLLGAQPLLVLGFSGPLLVFEEAFYSFCQTNNLEYIVGRVWIGFWLILLVVLVVAFEGSFLVRFISRYTQEIFSFLISLIFIYETFYKLVTIFQDHPLQKNYDHDVLTTPKPQAALPNTALLSLVLMAGTFFLAMMLRKFKNSSYFPGKLRRIIGDFGVPISILIMVMVDALIQDTYTQKLSVPEGLSVSNPTERDWLIHPLGIRVEFPIWMMFASALPALLVFILIFLESQITTLIISKPERKMVKGSGFHLDLLLIIGMGGVGAIFGMPWLSATTVRTVTHANALTVMSKDSTPGAVSQIQGVKEQRISGLLVAVLVGVSILMGPVLRHIPLAVLFGIFLYMGVTSLSGIQLFDRVLLLLKPRKYYPEVPYARRVKTWRMHLFTITQIVCLVVLWVVRSIKQISLALPFILILTVPLRRFLLPFIFRDMELKLLDADDVKLNLDEQNGQDEYDEVAMPV
notes: anion exchanger 1 (AE1, band 3), bovine, native protein from erythrocyte membranes; monomer about 100 kDa; Solubilised in dodecyl maltoside (0.03% DDM in the final buffer); The dimer fraction from size exclusion was used; also called bovine AE1; full-length AE1 dimer; source: purified from bovine erythrocyte membranes (ghosts; DDM extraction, DE-52 ion exchange, Superose 6 size exclusion)
stoichiometry N: 2
